“Also recorded” adds a separate entry of the source.
What was measured:
hENO1 = target: T1, hENO1 (Homo sapiens, UniProt P06733); assay: Western blot on purified human ENO1 protein; assay type: binding
T1 construct: His; made in house; host or cells: E. coli BL21 (by 'in the same way')
Excerpt: Lane M contained protein markers.
The ImageQuant LAS4500 was used for ECL intensity detection.

[1] = target: T2, alpha-enolase on the surface of C. albicans (Candida albicans, UniProt P30575); assay: Flow cytometry of C. albicans, FITC binding; assay type: cell-based, C. albicans SC 5314; settings: 100 ug antibody, 10^5 cells, 2 hours at 37° C.
T2 construct: endogenous in cells; host or cells: C. albicans SC 5314 and clinical isolates CA6-17, CA7-26, CA7-3, CA10-50, CA7-30, CA10-65
Protocol: (A) C. albicans SC 5314 were cultured overnight and 10^5 cells were added to each tube with 2 ml YPD medium. Experiment antibodies were added to each tube (1) Anti-CaENO1 IgY (100 ug) (2) Control scFv (100 ug) (3) scFv CaS1 (100 ug) (4) PBS, and cultured 2 hours at 37° C. in an incubator. Goat anti-chicken light chain (1:1500) antibody was used as detected antibody; FITC donkey anti-goat antibody (1:1000) was used as developed antibody to detect the reaction. Propidium iodide (PI) (1 ug/ml) was used to detect cell death. (B) Quantification of flow cytometry result in the panel A (*, p<0.05;**, p<0.01). Flow cytometry is represented as mean±SD of the duplicated experiment.
Anti-CaENO1 IgY, scFv CaS1 and control scFv were contacted with C. albicans and then subjected to flow cytometry assay. Anti-CaENO1 IgY, scFv CaS1 and control scFv show 89.7+/−2.8%, 46.64+/−3.1% and 23+/−2.3% FITC fluorescence reaction (FIG. 7A), representing that the antibody can bind to alpha-enolase on the surface of C. albicans.

C. albicans [2] = assay: Mouse model of C. albicans infection (survival); assay type: in vivo, ICR mice; settings: for survival rate: ICR mice; for Protection against lethal challenge of C. albicans in mice: mouse, in vivo
Protocol: The mice were grouped and challenged with the mixture of 10^6 of C. albicans containing 10 ug and 100 ug CaS1 scFv, 100 ug anti-DA scFv (unrelated scFv control) or 1×PBS, respectively. The survival of mice was monitored at 1 day intervals for 10 days.
A total of 20 ICR female mice (purchased from National Laboratory Animal Center, Taiwan) weighing about 30 g were randomly grouped with 5 mice in each group. C. albicans were grown overnight and washed in normal saline. Four groups of mice were treated through the lateral tail vein with the following preparations: (i) 1×PBS alone; (ii) 1×10^6 cfu of C. albicans cells pre-incubated with 50 μg of CaS1; (iii) 1×10^6 cfu of C. albicans cells pre-incubated with 100 μg of CaS1; (iv) 1×10^6 cfu of C. albicans cells pre-incubated with anti-CaENO1 IgY. Mice were monitored for survival at 1 day intervals for 10 days. All treatments and handling of mice were carried out according to animal experimental protocols approved by the Institutional Animal Care and Use Committee of Taipei Medical University.
1×10^6 cells of C. albicans solutions were mixed with 100 μg of each of the anti-CaENO1 IgY, scFv CaS1 and control scFv and then injected into ICR mice (5 mice for each group).
We evaluated the survival rate of the CaS1 on animal model. Initially ICR mice were tail-vein injected with 1×10^6 cells of C. albicans with PBS alone or cells pre-incubated with CaS1 (10 and 100 μg) for one hour at 37° C. […] Anti-Deinagkistrodon acutus scFv (anti-DA) is an antibody to snake venom, which was used as an unrelated scFv control.

C. albicans [3] = assay: C. albicans growth on YPD agar plate; assay type: cell-based; settings: 0.5 mg/ml antibody pre-incubated 1 hr, 10x dilutions spotted
Protocol: (A) C. albicans were cultured in YPD medium overnight at 37° C. 10^8 cfu/ml of C. albicans was mixed with equal volume of 0.5 mg/ml anti-CaENO1 IgY, 0.5 mg/ml CaS1 scFv or 1×PBS, respectively, at room temperature for 1 hr. 1 ul of each mixture in 10× dilutions was spotted on YPD agar plate and incubated at 37° C. overnight. (B) 10^3 cfu of C. albicans was mixed with PBS (control), 10 or 100 µg/ml CaS1 scFv at room temperature for 1 hr. 1 ul of each mixture was spotted on YPD agar plate and incubated at 37° C. for 5 days. The hyphal formation was observed under the microscope.
To determine the effect of scFv antibodies on the cell growth and hyphal formation, anti-CaENO1 IgY (0.5 mg/ml) or CaS1 scFv (0.5 mg/ml) or PBS were pre-incubated with C. albicans (1×10^6 cfu) for 1 hr at 37° C. After incubation, 1 ul of each mixture in 10-fold dilutions was spotted on YPD agar plate and incubated at 37° C. overnight. 10^3 cfu of C. albicans was mixed with 0 (1×PBS control), 10 or 100 µg/ml CaS1 scFv at room temperature for 1 hr. Thereafter, 1 ul of each mixture was spotted on YPD agar plate and incubated at 37° C. for 5 days. […].
We evaluated the influence of CaS1 on growth of C. albicans, we pre-incubated CaS1 scFv with C. albicans and plated on the agar.

T1 sequence (P06733 whole entry): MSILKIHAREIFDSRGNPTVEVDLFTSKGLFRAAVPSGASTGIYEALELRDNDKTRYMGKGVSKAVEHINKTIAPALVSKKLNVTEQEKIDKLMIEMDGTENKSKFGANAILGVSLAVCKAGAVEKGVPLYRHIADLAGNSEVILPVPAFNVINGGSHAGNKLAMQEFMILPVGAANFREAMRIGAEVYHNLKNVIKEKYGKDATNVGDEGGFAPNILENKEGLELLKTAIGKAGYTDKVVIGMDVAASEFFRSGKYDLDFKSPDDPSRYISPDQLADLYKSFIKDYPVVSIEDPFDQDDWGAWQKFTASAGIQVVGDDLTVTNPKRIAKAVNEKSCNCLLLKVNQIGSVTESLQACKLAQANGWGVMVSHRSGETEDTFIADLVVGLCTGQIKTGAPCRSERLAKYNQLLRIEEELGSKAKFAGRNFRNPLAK
T2 sequence (P30575 whole entry): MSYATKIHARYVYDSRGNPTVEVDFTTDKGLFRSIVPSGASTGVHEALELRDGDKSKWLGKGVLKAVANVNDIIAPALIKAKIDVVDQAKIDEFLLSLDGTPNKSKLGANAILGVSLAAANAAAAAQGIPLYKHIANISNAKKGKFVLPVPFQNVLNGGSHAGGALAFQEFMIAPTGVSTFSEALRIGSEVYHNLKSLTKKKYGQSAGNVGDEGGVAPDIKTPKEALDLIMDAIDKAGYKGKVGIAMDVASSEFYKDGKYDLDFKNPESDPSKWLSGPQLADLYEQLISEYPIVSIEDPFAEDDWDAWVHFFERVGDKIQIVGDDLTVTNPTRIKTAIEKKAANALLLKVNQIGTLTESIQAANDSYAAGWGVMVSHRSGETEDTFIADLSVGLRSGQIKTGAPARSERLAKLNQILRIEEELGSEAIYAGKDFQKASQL

B1: CaS1 scFv: anti-CaENO1 scFv monoclonal antibody from chicken phage library; light chain SEQ ID NO:11, heavy chain SEQ ID NO:12 (antibody, V domains shown)
VH: TVTLDESGGGLQTPRGALSLVCKASGFTFIDYGMQWVRQAPGKGLEWVAGIGSSGSSTNYGAAVKGRATISRDDGQSTVRLQLNNLRAEDTGTYYCAKSAGGYCVNGAGCNGGSIDAWGHGTEVIVSS
VL: ALTQPSSVSANLGGTVKITCSGGSGSYGWYQQKSPGSAPVTVIYSNNQRPSNIPSRFSGSPSGSTGTLTITGVQADDEAVYFCGSRDSSYVGVFGAGTTLTVL
modifications: scFv linker; amino acid sequence comprised in a heavy chain of an anti-CaENO1 scFv monoclonal antibody (CaS1); amino acid sequence comprised in a light chain of an anti-CaENO1 scFv monoclonal antibody (CaS1)
Binding to purified hENO1 (Western blot) (hENO1): very little; also recorded: weak cross reactivity | FITC fluorescence reaction [1]: 46.64+/−3.1% | survival rate (C. albicans [2]; 10 μg pre-incubated with 1×10^6 cells of C. albicans, tail-vein): 40% | survival rate (C. albicans [2]; 100 μg mixed with 1×10^6 cells of C. albicans, 10 days): 80% | Protection against lethal challenge of C. albicans in mice (C. albicans [2]): partial protect activity; also recorded: significant protective activity | Protection against lethal challenge of C. albicans in mice (C. albicans [2]; listed as CaS1 antibody): prolonged the survival time | C. albicans growth on YPD agar plate (C. albicans [3]): decreased C. albicans growth | C. albicans growth on YPD agar plate (C. albicans [3]; listed as CaS1): attenuated the growth

From patent US11485776B2, “Antibodies against infectious diseases” (priority 2015, dated 2022)
